Results reported in patent publication US20120090043A1, “TARGETS FOR RETROVIRUS ASSOCIATED DISEASES” (priority 2009, published 2012).

Assays:
Test in all cases: cell-based or functional assay
HOXA3 (human) = HOXA3 (human) (UniProt O43365)
HOXD3 (human) = HOXD3 (human) (UniProt P31249)
LNX2 (human) = LNX2 (human) (UniProt Q8N448)
LOC541468 (human) = LOC541468 (human) (UniProt Q96LR2)
MIZF (human) = MIZF (human) (UniProt Q9BQA5)
PDE9A (human) = PDE9A (human) (UniProt O76083)
SF3A3 (human) = SF3A3 (human) (UniProt Q12874)
C20orf141 (human) = C20orf141 (human) (UniProt Q9NUB4)
CCDC24 (human) = CCDC24 (human) (UniProt Q8N4L8)
DGCR6L (human) = DGCR6L (human) (UniProt Q9BY27)
DHRS10 (human) = DHRS10 (human) (UniProt Q9BPX1)
FANCG (human) = FANCG (human) (UniProt O15287)
FATE1 (human) = FATE1 (human) (UniProt Q969F0)
FLJ22471 (human) = FLJ22471 (human) (UniProt Q53HC0)
HOXB9 (human) = HOXB9 (human) (UniProt P17482)
KIAA1949 (human) = KIAA1949 (human) (UniProt Q6NYC8)
KIF9 (human) = KIF9 (human) (UniProt Q9HAQ2)
KRT8 (human) = KRT8 (human) (UniProt P05787)
LENG1 (human) = LENG1 (human) (UniProt Q96BZ8)
MRPS6 (human) = MRPS6 (human) (UniProt P82932)
MYEF2 (human) = MYEF2 (human) (UniProt Q9P2K5)
NEFL (human) = NEFL (human) (UniProt P07196)
NIF3L1 (human) = NIF3L1 (human) (UniProt Q9GZT8)
NOS3 (human) = NOS3 (human) (UniProt P29474)
SPG21 (human) = SPG21 (human) (UniProt Q9NZD8)
TTC23 (human) = TTC23 (human) (UniProt Q5W5X9)
ZNF614 (human) = ZNF614 (human) (UniProt Q8N883)

## HIV-1 Tat
HOXA3 (human)
  HIV LTR transactiv. (fold change): 0.29 fold change
HOXD3 (human)
  HIV LTR transactiv. (fold change): 7.3 fold change
LNX2 (human)
  HIV LTR transactiv. (fold change): 0.26 fold change
LOC541468 (human)
  HIV LTR transactiv. (fold change): 2.38 fold change
MIZF (human)
  HIV LTR transactiv. (fold change): 2.5 fold change
PDE9A (human)
  HIV LTR transactiv. (fold change): 0.28 fold change
SF3A3 (human)
  HIV LTR transactiv. (fold change): 0.49 fold change

## HTLV-1 Tax p40
C20orf141 (human)
  HTLV LTR transactiv. (fold change): 2.8 fold change
CCDC24 (human)
  HTLV LTR transactiv. (fold change): 2.88 fold change
DGCR6L (human)
  HTLV LTR transactiv. (fold change): 0.24 fold change
DHRS10 (human)
  HTLV LTR transactiv. (fold change): 0.41 fold change
FANCG (human)
  HTLV LTR transactiv. (fold change): 3.48 fold change
FATE1 (human)
  HTLV LTR transactiv. (fold change): 0.49 fold change
FLJ22471 (human)
  HTLV LTR transactiv. (fold change): 2.25 fold change
HOXB9 (human)
  HTLV LTR transactiv. (fold change): 3.69 fold change
KIAA1949 (human)
  HTLV LTR transactiv. (fold change): 0.35 fold change
KIF9 (human)
  HTLV LTR transactiv. (fold change): 0.37 fold change
KRT8 (human)
  HTLV LTR transactiv. (fold change): 0.24 fold change
LENG1 (human)
  HTLV LTR transactiv. (fold change): 0.34 fold change
LNX2 (human)
  HTLV LTR transactiv. (fold change): 0.28 fold change
MRPS6 (human)
  HTLV LTR transactiv. (fold change): 0.38 fold change
MYEF2 (human)
  HTLV LTR transactiv. (fold change): 2.53 fold change
NEFL (human)
  HTLV LTR transactiv. (fold change): 0.45 fold change
NIF3L1 (human)
  HTLV LTR transactiv. (fold change): 0.39 fold change
NOS3 (human)
  HTLV LTR transactiv. (fold change): 0.45 fold change
SPG21 (human)
  HTLV LTR transactiv. (fold change): 0.21 fold change
TTC23 (human)
  HTLV LTR transactiv. (fold change): 0.21 fold change
ZNF614 (human)
  HTLV LTR transactiv. (fold change): 5.24 fold change
